In the nanobody polyreactivity screen of Harvey et al. (2022):

Assay: yeast display, Sf9 membrane polyspecificity reagent, FACS + sequencing; frameworks hold sequencing errors
Method in brief: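 Sorting gates, low and high (top ~1%), were placed on anti-HA fluorescence to track expression and on streptavidin fluorescence to track reagent binding. A clone's polyreactivity label is taken from the gate it came out of. The reagent was 10% biotinylated, detergent-solubilized Sf9 membrane, applied for 1 hour at 4 °C to galactose-induced yeast display cells.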

Sequence: QVQLVESGGGLVQAGGSLRLSCAASGYIIRRYSMVWYIQAPGKESEWVAVISSRGGSTYYADSVKGRFTISRDYAKNTVYLQMNSLKPEDTPVYYCAARSGSRATVLSDYWGQGTQVTVSS
- polyreactivity (PSR sort gate): high polyreactivity

Sequence: QDQLEESGGGLVQAGGSLRLSFAASGSTFYGYARGWYRPAPGKERELVAAISVNGGSTYYADSVKGRFTISRDNAKNTVYLQMNSLKPDETAVYYCAAGSGWRFDYWGQGTQVTVSS
- polyreactivity (PSR sort gate): low polyreactivity

Sequence: QVQLVESGGGLVQAGGSLRLTCAASGRTFWYYAMGWYRQAPGKERELVAASYYSGDGTYYADSVKGRFTISRDNAKNTVYLQMTSLKPEDTALYYGAAEWSDPTLPTAWSEYEYWGQGTHVTVSS
- polyreactivity (PSR sort gate): high polyreactivity

Sequence: QVQLVESGGGLVQAGGSLRLSCAASGFTIIIYAMGWYRQAPGKERQLVAAINTSGTRTYYADSVKGRFTISRDNAKNTVYLQMNSLKPEDTAVYYCAARSGYKGEHGDRDDYWGQGTQVTVSS
- polyreactivity (PSR sort gate): high polyreactivity

Sequence: QVQLVESGGGLVQAGGSLRLSCAASGLTFGHYAMGWYRQAPGKERELVATISSRGVSTRYADSVKGRFTISRDNAKNTVYLQMNSLKPEDTAVYYCNARDYTWGKYYSSKIGYYYWGQGTQVTVSS
- polyreactivity (PSR sort gate): high polyreactivity

Sequence: QVQLLESGGCLVQAGGSLRLSCAASGSTFWHNAMGWYRQAPGKERELVAAISSGSSTYYADSVKGRFTISRDNAKNTVYLQMNSLKPEDTAVYYCAKELYLGYRYWGYYWGQGTQVTVSS
- polyreactivity (PSR sort gate): high polyreactivity

Sequence: QVQLVESGGGLVQAGGSLRLSCAASGSNFRGNAMAWYRQAPGKERELVAAITYNDGGTYYADSVKGRFTISRDNAMNTVYLQMNLLKPEDTAVYYCAAVGTGNKSILYDYWGQGTQVTVSS
- polyreactivity (PSR sort gate): low polyreactivity

Sequence: QVQLVESGGGLVQAGGSLRLSCAASGYTFQKYAMGWYRQAPGKERELVAAITRSGTRTYYADSVKGRFTISRDNAKNTVYFQMNSLKPEDTAVYYCAAETYYSIYDYWGQGTQVTVSS
- polyreactivity (PSR sort gate): high polyreactivity

Sequence: QGQLVESGGGFVQAGGSLRLSCAASGRTIEGNAMGWYRQPPWKERELVAGIRQSGDSTYYADSVKGRFTISRDNAKNTVYLQMNSLKAEETAVFYSNSRAFPFGTGVQGFGFGYWGQGTQVTVSS
- polyreactivity (PSR sort gate): low polyreactivity

Sequence: QVQLVESGGGLVQAGGSLRLSCAASGRTFRNNAMGWYRQAPGKERELDAAIKGSGGSTYYADSVKGRFTISRDNAKNTVYLQMNSLKPEDTAVYYCAKAVVPWGPNFRPNHTRGYYWGQGTQATVSS
- polyreactivity (PSR sort gate): low polyreactivity

Sequence: QVQLVESGGGLVQAGGSLRLSCAASGSIFTWYAMGWYRQAPGKERELVAAITRGGSTYADSVKGRFTISRDNAKNTVYLQMNSLKPEDTAVYYCNAVYGVYDFNYWGHGTQVTVSS
- polyreactivity (PSR sort gate): low polyreactivity

Sequence: QVQLVESGGGLVQAGGSLRLSCPASGRIIGGNAMGWYRQAPGKEREFVAAIRASGGSTHYADSVKGRFTISRDNAKNTVYLQMNSLKPEDTAVYDCNALSRNTHLYDYWGQGTQVTVSS
- polyreactivity (PSR sort gate): high polyreactivity

Sequence: QVQRVESGGGLVQAGGSLRLSCAASGRTFAYYVMGWYRQAPGKERELVAAISWSAGSTYYADSVKGRFTISRDNAKNTVYLQMNSLKPEDTAVYYCAADYRFRYEYWGQGTQVTVSS
- polyreactivity (PSR sort gate): low polyreactivity

Sequence: KVQLVESGGSLVQAGGSLRLSSAASGRIITGYAMGWYRQAPGKEWELVAAITGSCVSTYYADSVKGRFTISRDNSKNTVYLQMNSLKPEDTAVYYCAARRYYGYVHWGQGTQVTVSS
- polyreactivity (PSR sort gate): high polyreactivity

Sequence: QVQLVESGGGLVQAGGSLRLSCAASGFTFTRNAMGLYRQAPGKERELFAAISKRGGTTYYADSVKGRFSISRDYAKNTVYLQMNSLKPEDTAVYYCAKDGGITGGYWGQGSQVTVSS
- polyreactivity (PSR sort gate): high polyreactivity

Sequence: QVQLVESGGGLVQAGGSLRLSCAASGSTFGDYAMGWFRQAPGKERELVAAMNSGDSRNYADSVKGRFTISRDNAKNTVYLQMNSLKPEDTAVYYCAAEPWSISYVYYKYKYESWGQGTQVTVSS
- polyreactivity (PSR sort gate): low polyreactivity

Sequence: QVQLVESGGGLVQAGGSLRLSCAASGRTFNRYAMGWYRQAPGKERELVAAISWSGGRTYYADSVKGRFTISRDNAKNTVYLQMNSMIPEATAVYYCAKEAYFRYDYCGQGTQVTVSS
- polyreactivity (PSR sort gate): low polyreactivity

Sequence: QVQLVESGGGLVQAGGSLRLSCAASGSTFGRYAMGWYRQAPGKERELVAAISARGGSTYYADSVKGRFTISRDNAKNTVYLQMNSLKPEDTAVYYCNVDYLLHGGRFDYWGQGTQVTVSS
- polyreactivity (PSR sort gate): high polyreactivity

Sequence: QVQLVESGGGLVQAGGSLRLSCAASGNIFYAYAMGWYRQAPGKEREFVAAITKNGGSTYYADSVKGRFTISRDNAKNTVYLQMISLKPEYTAVYYCTAGGVYPRFTFLEQGYEMDYWGQGTQVTVSS
- polyreactivity (PSR sort gate): low polyreactivity

Sequence: QVQLVESGGGLVQAGGSLRLSCAASGSIFSQYAMGWYRQAPGKERELVAAISASGGRTYYADSVKGRFTISRDNAKNTVYLQMNSLKPEDTAVYYCNAAHGSNRYSFVNPFYYWGQGTQVTVSS
- polyreactivity (PSR sort gate): high polyreactivity

Sequence: QVQLVESGGGLVQAGGSLRISCAASGRIFFAYAMGWYRQAPGKERELVASITWSGSSTTYADSVKGRFTISRDNAKNTVYLQMNSLKPDDTAVYFCGSDPYFWGYHFRRYGSRGQGTQVTVSS
- polyreactivity (PSR sort gate): low polyreactivity

Sequence: QVQLVESGGGLVQAGGSLRLSCAASGITFYGYTMGWYRQAPGKERELVAAITYFGSTYYADSVKGRFTISRDNAKNTVYLQMNSLKPEDTAVYYCAAQRFRSGWFGYWGQGTQVTVSS
- polyreactivity (PSR sort gate): high polyreactivity

Sequence: QVQLVESGGGLVQAGGSLRLSCAASGITFYDNAMGWYRPAPGKEWELVAGISYDGDSTYADSVKGRFTISRDNAKNTVYLQINSLKPEDTAVYYCAALGPYDWLWAGDYWGQGTQVTVSS
- polyreactivity (PSR sort gate): low polyreactivity

Sequence: QVQRVESGGGLVQAGGRLRLSFAASGFIFYAMGWYRQAPGKERELVAAITLSDGTTYYADSVKGRFTISRDNAKNTVYLQLNSLKPEDTAVYYCAAEYSVPYRGWDGYEYWGQGTQVTVSS
- polyreactivity (PSR sort gate): low polyreactivity

Sequence: QVQLVESGGGLVQAGGSLRLSCAASGSTFPDYVMGWYRQAPGKERELVAAISSIGGSTYYADSVKGRFTISRDKAKNTVYLQMNSLKPEDTAVYYCAAENSYFYPFDYWGQGTQVTVSS
- polyreactivity (PSR sort gate): low polyreactivity

Sequence: QVQLVESGGGLVQAGGSLRLSCAASGSTFVYYAMGWYRQAPGKERELVATINYNGGSTSYADSVKGRFTISRDNAKNTVYLQMNSLKPEDTAVYYCAKDRYYTWGDYWGQGTQVTVSS
- polyreactivity (PSR sort gate): low polyreactivity

Sequence: QVQHVESGGGLVQAGGSLRLSCAASGRIFVNYAMGWSRQAPGKERELVAAITYIDSGTYYADSVKGRFTISRDNAKNTVYFQRNSLKPEDTAVYYCAVRLNSDSNRKTQKYGYWGQGTQVTVSS
- polyreactivity (PSR sort gate): low polyreactivity

Sequence: QVQLVESGGGLVQAGGSLRLSCAASGRTFQVNTMGWYRQAPGKERELVAAISSAGRTYYADSVKGRFTISRDNAQNTVYLQMNSLKPEDTAVYYCAAAWSYSYWKARYGYWGQGTQVTVSS
- polyreactivity (PSR sort gate): high polyreactivity

Sequence: QVQRVESGGGLVQAGGSLLLSCAASGRIFYRSAMGWYRQAPGKESELVASISWSGGSTYYADSVKGRFTISRDNAKNTVYLQMNSLKPEDTAVYYCAARSYRYSYRYRAFDYWGQGTQVTVSS
- polyreactivity (PSR sort gate): high polyreactivity

Sequence: QVQLVQSGGGLVQAGGSLRLSCAASGRTFSKYVLGWYRQAPGKERQLVAAITYSGGYTYYADSVKGRFTISRDNAKNTVYLQMYSLKPEDTAVYYCAAESYAHVSNGYDYWGQGTQVTVSS
- polyreactivity (PSR sort gate): low polyreactivity

Sequence: QVQLVESGGGLVQAGGSLRLSCAASGSIFRYYAMGWYRQAPGKERELVATISSSGGTTYYADSVKGRFTISRDNAKNTVYLQMNSLKPEETAVYYCAALWTWHVSYPVHEYDFWGQGTQVTVSS
- polyreactivity (PSR sort gate): low polyreactivity

Sequence: QVQLVESGGGLVQAGGSLRLSCAASGRTFDKYAMGWYRQAPGKERELVAAISYDAGRTYYADSVKGRFTISRDNAKNTVYLQMNSLKPEDTAVYYCNAVRFRGFGWGQGTQVTVSS
- polyreactivity (PSR sort gate): high polyreactivity

Sequence: QVQLVESGGGLVQAGGSLRLSCDDSGSIFWWYTMGWYRQAPGKERELVAAITWNADGTYYADSVKGRFTISRDNAKNTVYLPINSLKPEDTAVYYCAADQYYLDWGGGYDYWGQGTQLTVSS
- polyreactivity (PSR sort gate): low polyreactivity

Sequence: QVQLVESGGGLVQAGGSLRLSCAASGFSFLAYAMGWYRQAPGKERELVAAINSSDGTTHYADSVKGRFTISRDNAKNTVYLQMNSLKPEDTAVYYCAVSQVRTGEGYHYWGQGTQVTVSS
- polyreactivity (PSR sort gate): low polyreactivity

Sequence: QVQLVESGGGLVQAGGSHRLTCAASGITFTVNAMGWYRQAPRKERELVAAISNDGSTYYADSVKGRFTISRDYAKNTVYLQMNSLKPEDTAVYYCAADTWDDFGPYGYDYWGQGTQVTVSS
- polyreactivity (PSR sort gate): low polyreactivity

Sequence: QVQLVESGGGLVQAGGSLRLSCAASGSTFGTNAMGWYRQAPGKERELVARINSSASTTYADSVKGRFTISRDNAKNTVYLQMNSLKPEDTAVYYCNADDRHSRVGHSWQDAQFDYWVQGTQVTVSS
- polyreactivity (PSR sort gate): high polyreactivity

Sequence: QVQLVESGGGLVQAGGSLRLSCAASGSIFYVYAMGWYRQAPGKERELVAAITNYADSVMGRFTISRDNAKNTVYLQMNSLKPEDTAVYYCAADWWRVEMDYWGLGTQVTVSS
- polyreactivity (PSR sort gate): low polyreactivity

Sequence: QVQLQESGGGLVQAGGSLRLSCAASGNIFEADIMGWYHQAHGKERELVASITDGGSTNYADSVKGRFNIKRDNAKNIVYLQMNSLKPEDTAVYYCAAIAYPDIATYFDYDSDYFYWGQGTQVTVSS
- polyreactivity (PSR sort gate): high polyreactivity

Sequence: QVQLVESGGGLVQAGGSLRLSCAASGFIFSYYVMGWYRQAPGKERELVAAINESGGRTYYADSVKGRFTISRDNAKNTVYLQMNSLKPEDTAVYYCAASVLNKIQGYRDYYWGQGTQVTVSS
- polyreactivity (PSR sort gate): low polyreactivity

Sequence: QVQLVESGGGLVQAGGSLSLSCAASARTFYGSAKGWYRQAPGKERELVAAINYSGGRTYYADSVKGRFTISRDNAKNTVYLQMNSLKAEDTAGYYCAAPRASGYYWGQGTQVTVSS
- polyreactivity (PSR sort gate): high polyreactivity

Sequence: QVQLVESGGGLVQAGGSLRLSCAASGSIFFKYAMGWYRQAPGKEREMVAAITWSGGRTYYADSVKGRFTISRDNAKNTVYLQMNSLKPEDTAVYYCNAYSIGVAAADDYWGQGTQVTVSS
- polyreactivity (PSR sort gate): high polyreactivity

Sequence: QVQLVESGGGLVQAGGSLRLSCAASGSTFDLYAMGWYRQATGKERELVAAISRSGGSTYYADSVKGRFTISRDNEKNTVYLQMNSLKPDDTAVYYCNARWPLGVSRGGMGYWGQGTQVTVSS
- polyreactivity (PSR sort gate): high polyreactivity

Sequence: QVQLVESGGGLVQAGGSLRLSCAASGFTFTDNAMGWSRQAPGKERELVAAISRGVGTNYADSVKGRFTISRDNAKNTVYLQMNSLKPEDTAVYYCAAGGRSVRYNYWGQGTQVTVSS
- polyreactivity (PSR sort gate): high polyreactivity
